# Laboratory results: US20170165321A1, “METHOD FOR REDUCING AND/OR DELAYING PATHOLOGICAL EFFECTS OF HUMAN IMMUNODEFICIENCY VIRUS I (HIV) OR FOR REDUCING THE RISK OF DEVELOPING ACQUIRED IMMUNODEFICIENCY SYNDROME (AIDS)” (Bionor Immuno AS, priority 2014, published 2017)
# Where no end group is shown, it is not given here.
# B1: Vacc-4x: four synthetic peptides (Vacc-10, Vacc-11, Vacc-12, Vacc-13 acetate) corresponding to conserved domains on HIV-1 p24; SEQ ID NOs 3, 6, 11, 18 (peptide)
# chain 1: APTRAKRRVVQREKRAV
# chain 2: DRPEGIEEEGGERDR
# chain 3: QLLLNGSLAEEEIVI
# chain 4: GGAKRRVVGGAKRRVVGGQREKR
# modifications: also: acetate salts
# Experiments:
# [1] = test system: HIV-specific T-cells; conditions: IMiD present during in vitro T-cell stimulation; Keersmaecker et al.; cited from earlier work
# [2] = test system: HIV-1 expression in latently infected cell lines and primary T cells; conditions: cited from earlier work
# [3] = test system: HIV positive subjects; test: Open-label re-boost follow-up study CTN BI Vacc-4x/2009/1; assay type: in vivo, human
# Excerpt: CTN BI Vacc-4x/2009/1 was an open-label follow-up of study CTN B-HIV-2/2001 to determine whether a re-boost with Vacc-4x could reactivate or increase the immune response obtained during the immunization performed in the CTN B-HIV-2/2001 study. The secondary objectives were to evaluate: the in vivo immunogenicity of Vacc-4x by evaluation of DTH and to compare the DTH response to DTH in the initial study; the effect of Vacc-4x on CD4 counts, CD8 counts and HIV viral RNA; and the safety and tolerability of Vacc-4x. All 26 subjects included in the study received two booster administrations of Vacc-4x.
# [4] = test system: HIV-1 DNA (HIV-1 gag gene); test: Proviral DNA by real-time PCR in re-boosting study CT-BI Vacc-4x 2012/1; assay type: in vivo, human; conditions: PP
# Protocol: The study CT-BI Vacc-4x 2012/1 (EudraCT Number: 2012-002281-12) is an open label, multicenter, follow-up, re-boosting study of subjects who previously completed the immunization regimen with Vacc-4x active and stopped ART (at Week 28) in the CT-BI Vacc-4x 2007/1 Study (EudraCT Number 2007-006302-13). No restart of ART is required. The subjects will be re-boosted with two immunizations (Visit 2 and Visit 3) of Vacc-4x, 1.2 mg peptides (12 mg/mL), with a 2 week interval between immunizations.
# HIV-1 DNA levels will be determined by real-time PCR (Taqman) assay targeting HIV-1 gag gene. Briefly, DNA for each subject at visit 2, 4, 6, 9 and 10 will be extracted from total PBMCs (1-4 million cells), eluted in appropriate storage buffer, quantified and stored at −20° C. until used. Equal amounts of DNA (≈300 ng) will be used to quantify gag and albumin genes in order to determine the number of copies of HIV-DNA per million of cells.
# There was a decrease in proviral DNA levels of approximately 50% after immunization while on ART, based on geometric means.
# [5] = Osmolality of reconstituted Vacc-4x drug product; assay type: physicochemical
# Protocol: The range of 10-100 mOsm/kg was defined based on the result obtained for the technical sample. Potential variability due to the four peptides is taken into account. For the drug product, approximately 1 mg of each of the four Vacc-4x peptides was used. The lyophilisate is reconstituted with 0.30 mL of WFI. Taking the acetic acid contents of the peptides listed in table 1 into account, the acetic acid content of Vacc-4x is approximately 0.40 mg in 0.30 mL of solution. The theoretical osmolality is approximately 23 mOsmol/L by calculation, which correlates well with the values determined in the Vacc-4x batches (20-23 mOsmol/kg).
# [6] = test system: mice; test: Single-dose intravenous toxicity study in mice; assay type: in vivo, mouse
# Protocol: (§1) Toxicity studies were performed in mice and rats on the peptide composition of the vaccine in Example 2. The mouse was selected for the study to provide comparative data from a second commonly used rodent species. The test substance was a mixture of four peptides supplied as one vial containing lyophilised material for reconstitution with physiological saline, and dose levels were expressed in terms of total peptide load. The individual peptides was present in ratio 1:1:1:1 w/w giving dose levels of each peptide of 0.0075 mg/kg body weight, 0.075 mg/kg body weight and 0.75 mg/kg body weight, which are up to 500 fold the intended human dose. The test animals were divided into four groups of ten animals each (five males and five females); a saline control group and groups for low, intermediate and high doses. The test composition was administered once, by intravenous infusion into a tail vein at a dose rate of 3 ml/minute. The animals were killed at day 15 and 16 by intraperitoneal injection of sodium pentobarbitone.
# [7] = test system: rats; test: Single-dose intravenous toxicity study in rats; assay type: in vivo, rat
# Protocol: as §1
# [8] = test system: rabbit; test: Rabbit study of intradermal Vacc-4x with concomitant GM-CSF; assay type: in vivo
# Protocol: In a rabbit study the effect of Vacc-4x was evaluated in the presence of concomitant GM-CSF, the adjuvant used in the clinical program.
# [9] = test system: patients infected with HIV-1; test: Phase II randomized placebo-controlled study CT-BI Vacc-4x 2007/1; assay type: in vivo, human
# Protocol: The Phase II Study CT-BI Vacc-4x 2007/1 (EudraCT Number 2007-006302-13) was performed in US and Europe (UK, Germany, Spain and Italy). The study was a randomized, double-blind, multicenter, immunogenicity study of Vacc-4x versus placebo in patients infected with HIV-1 who have maintained an adequate response to ART. The primary objective was to evaluate the effect of Vacc-4x immunizations versus placebo on CD4 counts, T-cell function (ELISPOT, T-cell proliferative responses and intracellular cytokine staining) and the response to interruption of ART. The necessity to resume ART between the interruption of ART at Week 28 and the end of the study at Week 52, due to decreased CD4 count or increased viral loads, was monitored as one of the primary efficacy endpoints.
# [10] = test system: HIV-positive subjects
# [11] = test system: HIV positive subjects; test: Phase II dose-finding study CTN B-HIV 2/2001; assay type: in vivo, human
# Protocol: The Phase II dose-finding study (CTN B-HIV 2/2001) enrolled 40 HIV positive subjects, of which 38 completed the trial. Subjects were maintained on ART and treated with 10 immunizations at a dose of 0.4 mg (20 subjects) or 1.2 mg (20 subjects) per Vacc 4x injection, over a period of 26 weeks. Immunizations with Vacc 4x were performed following injection of rhu-GM-CSF (Leucomax [molgramostim]) as a local adjuvant. ART was interrupted from Week 26 to Week 30 to allow exposure to the subject's own virus (autologous immunization). ART was resumed from Week 30 to Week 38 to allow maturation of immune responses to the Vacc 4x peptides and to the subject's own virus. ART was discontinued from Week 38 to Week 52 when the study was formally concluded. […] One subject experienced a transient vasovagal reaction in conjunction with immunization and the DTH test at Week 26 and Week 38. A second subject experienced a vasovagal reaction in conjunction with the DTH test at Week 52. For the laboratory parameters, vital signs, and performance status, no changes attributable to immunization were observed.
# The dose-dependent differences in DTH reactions were maintained throughout the study. […] ART was interrupted at Week 38 with planned restart when CD4 counts fell to less than 200/μL or when AIDS- or HIV related events were observed (i.e. clinical practice).
# However, 14 weeks after the last interruption of ART (Week 52), the mean CD4 counts were still above 200×10^6 cells/L. No difference between the LD and the HD groups was observed. The majority of subjects remained off ART following completion of the study (Week 52); permission was given to follow the subjects until they resumed ART. The duration of treatment interruption was linked to immune responsiveness to the peptides. […] The median treatment interruption achieved for all the subjects that participated in the Vacc-4x Phase II clinical study was 31 months.
# [12] = 26 subjects, two booster administrations
# [13] = single intravenous dose, total peptide load
# [14] = single intravenous infusion, up to 0.75 mg/kg of each peptide
# [15] = 0.4 mg/injection, 12 immunizations
molecule,measurement,setting,value
Nc1cccc2c1CN(C1CCC(=O)NC1=O)C2=O (centres unmarked) [Lenalidomide],function of the T-cells,[1],a number of improvements in the function of the T-cells
Nc1cccc2c1C(=O)N(C1CCC(=O)NC1=O)C2=O (centres unmarked) [pomalidomide],function of the T-cells,[1],a number of improvements in the function of the T-cells
"C/C=C1\NC(=O)[C@H]2CSSCC/C=C/[C@H](CC(=O)N[C@H](C(C)C)C(=O)N2)OC(=O)[C@H](C(C)C)NC1=O [romidepsin, (1S,4S,7Z,10S,16E,21R)-7-ethylidene-4,21-bis(1-methylethyl)-2-oxa-12,13-dithia-5,8,20,23-tetraazabicyclo[8.7.6] tricos-16-ene-3,6,9,19,22-pentone]",activation of HIV-1 expression,[2],potently activates HIV-1 expression
B1,adverse events possibly/probably related to the study treatment,[3]; 26 subjects,60
same,patients reporting swelling related to the immunization,[3]; 26 subjects,Five
same,related adverse events that were mild,[3]; 26 subjects,98%
same,serious adverse events,[3]; 26 subjects,No patient reported serious adverse events
same,subjects reporting AEs,[3]; [12],23 subjects
same,total AEs reported,[3]; [12],74 AEs
same,duration of T cell responses induced by Vacc-4x peptides,[3]; before re-boost,up to seven
same,"effect of re-boosting on CD4, CD8 and viral load",[3]; two booster administrations,no negative effect
same,"Proviral DNA, Geometric mean","[4]; Baseline, n 26",22.3 copies/mL
same,"Proviral DNA, Mean","[4]; Baseline, n 26",98.4 copies/mL
same,"Proviral DNA, Median","[4]; Baseline, n 26",57.0 copies/mL
same,"Proviral DNA, Geometric mean ratio (Week 4/Baseline)",[4]; n 26,0.5
same,"Proviral DNA, Geometric mean","[4]; Week 4, n 26 (Table 3)",11.4 Copies/mL
same,"Proviral DNA, Mean","[4]; Week 4, n 26 (Table 3)",93.9 Copies/mL
same,"Proviral DNA, Median","[4]; Week 4, n 26 (Table 3)",34.5 Copies/mL
same,"Proviral DNA, Geometric mean","[4]; Week 4, n 27 (Table 2)",12.9 copies/mL
same,"Proviral DNA, Mean","[4]; Week 4, n 27 (Table 2)",100.8 copies/mL
same,"Proviral DNA, Median","[4]; Week 4, n 27 (Table 2)",45.0 copies/mL
same,theoretical osmolality,"[5]; by calculation, approx. 0.40 mg acetic acid in 0.30 mL",approximately 23 mOsmol/L
same,osmolality determined in the Vacc-4x batches,"[5]; lyophilisate, approx. 1 mg of each peptide, reconstituted with 0.30 mL WFI",20-23 mOsmol/kg
same,safety margin over the planned human dose level,[6]; from no effect level,500 fold
same,no effect level,[6]; [13],> 3 mg/kg
same,adverse reactions,[6]; [14],no adverse reactions
same,safety margin over the planned human dose level,[7]; from no effect level,500 fold
same,no effect level,[7]; [13],> 3 mg/kg
same,adverse reactions,[7]; [14],no adverse reactions
same,limiting toxicology,[8],no limiting toxicology
same,"local intradermal reactions (erythema, edema) versus control animals",[8],slightly more pronounced
same,systemic reactions,[8],no systemic reactions
same,"percentage change in CD4 count between Week 28 and last CD4 assessment before resumption of ART, versus placebo",[9]; ITT analysis population,no effect compared with placebo
same,"proportion of subjects requiring resumption of ART after ART cessation at Week 28, versus placebo",[9]; ITT analysis population,did not reduce
same,time to restarting ART versus placebo,[9]; ITT analysis population,similar
same,change in HIV-1 RNA from Week 28 through to Week 52 versus placebo,[9]; after ART cessation,statistically significant difference between groups in favour of Vacc-4x
same,safety concern,[9]; in vivo,No safety concern
same,Week 52 (LOCF) viral load versus placebo,[9]; post-hoc analysis,statistically significantly lower
same,average viral load versus placebo,[9]; subgroup who remained off ART until Week 52,lower in the Vacc-4x-treated subjects than the placebo group
same,HIV-1 RNA AUC versus placebo,[9]; subjects who remained off ART at Week 52,lower in the Vacc-4x group than in the placebo group
same,viral load (VL) set point versus placebo and versus historic preART values,[9]; with rhuGM-CSF (Leukine) as adjuvant,significant reduction
same,"immunogenicity, T-cell proliferative responses",[9]; with rhuGM-CSF as adjuvant,"immunogenic, inducing proliferative responses in both CD4 and CD8 T-cells"
same,serious adverse events,[10]; [15],no serious adverse events (SAEs) occurred
same,severity of adverse reactions,[10]; [15],mild or moderate in severity except for severe local reactions in one subject
same,antibody response to Vacc-4x peptides,[10]; 11 subjects,no antibody response
same,cell-mediated immune response by delayed-type hypersensitivity (DTH) skin reaction,[10]; 11 subjects,All subjects experienced a cell-mediated immune response
same,subjects with cell-mediated immune response by γ IFN release ELISPOT,[10]; 11 subjects,45 % of the subjects
same,treatment related fatigue-vertigo,[10]; 11 subjects,four
same,treatment related influenza-like symptoms,[10]; 11 subjects,two
same,treatment related irritated skin at injection site,[10]; 11 subjects,two
same,treatment related painful injection,[10]; 11 subjects,seven
same,subjects with events judged related to treatment,"[10]; 11 subjects, 0.4 mg/injection, 12 immunizations",nine
same,subjects with one or more adverse events,"[10]; 11 subjects, 12 immunizations of 0.4 mg/injection over 26 weeks, rhu-GM-CSF adjuvant",All subjects experienced one or more adverse events
same,subjects with treatment-related AEs,[11]; 0.4 mg group (20 subjects),8 subjects
same,DTH positive reactions,[11]; 0.4 mg or 1.2 mg per injection,observed for all subjects
same,SAEs during the period of immunization,[11]; 0.4 mg or 1.2 mg per injection,No SAEs were reported
same,subjects with treatment-related AEs,[11]; 1.2 mg group (20 subjects),12 subjects
same,"DTH positive responses (induration and erythema), high dose versus low dose",[11]; 1.2 mg versus 0.4 mg,statistically significantly higher in the high dose
same,median treatment interruption,"[11]; all subjects of the Phase II study, off ART",31 months
same,subjects with treatment-related AEs,"[11]; both dose groups, 40 subjects, 10 immunizations over 26 weeks",20 subjects
same,decline in CD4 cells versus similar subjects who stopped treatment without Vacc-4x,[11]; comparison with subjects in the Netherlands,significantly slower decline in CD4 cells
same,CD4 counts during the immunization period,[11]; on ART,stable or increased
